Reference: patent US20140004120A1 (published 2014)

T1: rsDR5 (recombinant human DR5 extracellular domain protein) (UniProt O14763 56-183)
T1 chain: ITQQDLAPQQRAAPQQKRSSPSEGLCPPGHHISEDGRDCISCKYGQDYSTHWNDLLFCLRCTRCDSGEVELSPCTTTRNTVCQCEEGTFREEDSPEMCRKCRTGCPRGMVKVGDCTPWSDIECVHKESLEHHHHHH

B1: hB273_H2-1-NE/hB273_L1-NE (antibody, V domains shown)
VH: EVQLVQSGAEVKKPGASVKVSCKASGYSFIGYFMNWMKQSPGMSLEWIGRFNPYNEDTFYNQKFKGKATLTVDKSTSTAYMELSSLRSEDTAVYFCARSAYYFDSGGYFDYWGQGTLVTVSS
VL: DIVMTQSPLSLPVTPGEPASISCRSSQSLVHSNENTYLHWYLQKPGQSPQLLIYKVSNRFSGVPDRFSGSGSGTDFTLKISRVEAEDVGVYYCSQSTHVPWTFGPGTKVEIKR
B2: hB273_H2-1-NE/hB273_L1-NL (antibody, V domains shown)
VH: EVQLVQSGAEVKKPGASVKVSCKASGYSFIGYFMNWMKQSPGMSLEWIGRFNPYNEDTFYNQKFKGKATLTVDKSTSTAYMELSSLRSEDTAVYFCARSAYYFDSGGYFDYWGQGTLVTVSS
VL: DIVMTQSPLSLPVTPGEPASISCRSSQSLVHSNLNTYLHWYLQKPGQSPQLLIYKVSNRFSGVPDRFSGSGSGTDFTLKISRVEAEDVGVYYCSQSTHVPWTFGPGTKVEIKR
B3: hB273_H2-1-NE/hB273_L1-NF (antibody, V domains shown)
VH: EVQLVQSGAEVKKPGASVKVSCKASGYSFIGYFMNWMKQSPGMSLEWIGRFNPYNEDTFYNQKFKGKATLTVDKSTSTAYMELSSLRSEDTAVYFCARSAYYFDSGGYFDYWGQGTLVTVSS
VL: DIVMTQSPLSLPVTPGEPASISCRSSQSLVHSNFNTYLHWYLQKPGQSPQLLIYKVSNRFSGVPDRFSGSGSGTDFTLKISRVEAEDVGVYYCSQSTHVPWTFGPGTKVEIKR
B4: hB273_H1/hB273_L2 (antibody)
heavy: not shown
light: DVVMTQTPLSLPVSLGEPASISCRSSQSLVHSNGNTYLHWYLQKPGQSPKLLIYKVSNRFSGVPDRFSGSGSGTDFTLKISRVEAEDVGVYFCSQSTHVPWTFGPGTKVEIKRTVAAPSVFIFPPSDEQLKSGTASVVCLLNNFYPREAKVQWKVDNALQSGNSQESVTEQDSKDSTYSLSSTLTLSKADYEKHKVYACEVTHQGLSSPVTKSFNRGEC
B5: hB273_H3/hB273_L2 (antibody)
heavy: not shown
light: DVVMTQTPLSLPVSLGEPASISCRSSQSLVHSNGNTYLHWYLQKPGQSPKLLIYKVSNRFSGVPDRFSGSGSGTDFTLKISRVEAEDVGVYFCSQSTHVPWTFGPGTKVEIKRTVAAPSVFIFPPSDEQLKSGTASVVCLLNNFYPREAKVQWKVDNALQSGNSQESVTEQDSKDSTYSLSSTLTLSKADYEKHKVYACEVTHQGLSSPVTKSFNRGEC
B6: hB273_H2/hB273_L2 (antibody)
heavy: not shown
light: DVVMTQTPLSLPVSLGEPASISCRSSQSLVHSNGNTYLHWYLQKPGQSPKLLIYKVSNRFSGVPDRFSGSGSGTDFTLKISRVEAEDVGVYFCSQSTHVPWTFGPGTKVEIKRTVAAPSVFIFPPSDEQLKSGTASVVCLLNNFYPREAKVQWKVDNALQSGNSQESVTEQDSKDSTYSLSSTLTLSKADYEKHKVYACEVTHQGLSSPVTKSFNRGEC
B7: hB273_H2/hB273_L1 (antibody)
heavy: not shown
light: DIVMTQSPLSLPVTPGEPASISCRSSQSLVHSNGNTYLHWYLQKPGQSPQLLIYKVSNRFSGVPDRFSGSGSGTDFTLKISRVEAEDVGVYYCSQSTHVPWTFGPGTKVEIKRTVAAPSVFIFPPSDEQLKSGTASVVCLLNNFYPREAKVQWKVDNALQSGNSQESVTEQDSKDSTYSLSSTLTLSKADYEKHKVYACEVTHQGLSSPVTKSFNRGEC
B8: hB273_H1/hB273_L3 (antibody)
heavy: not shown
light: DVVMTQTPLSLPVSLGEPASISCRSSQSLVHSNGNTYLHWYLQKPGQSPKLLIYKVSNRFSGVPDRFSGSGSGTDFTLKISRVEAEDVGVYFCSQSTHVPWTFGGGTKVEIKRTVAAPSVFIFPPSDEQLKSGTASVVCLLNNFYPREAKVQWKVDNALQSGNSQESVTEQDSKDSTYSLSSTLTLSKADYEKHKVYACEVTHQGLSSPVTKSFNRGEC
B9: hB273_H2/hB273_L3 (antibody)
heavy: not shown
light: DVVMTQTPLSLPVSLGEPASISCRSSQSLVHSNGNTYLHWYLQKPGQSPKLLIYKVSNRFSGVPDRFSGSGSGTDFTLKISRVEAEDVGVYFCSQSTHVPWTFGGGTKVEIKRTVAAPSVFIFPPSDEQLKSGTASVVCLLNNFYPREAKVQWKVDNALQSGNSQESVTEQDSKDSTYSLSSTLTLSKADYEKHKVYACEVTHQGLSSPVTKSFNRGEC
B10: hB273_H3/hB273_L3 (antibody)
heavy: not shown
light: DVVMTQTPLSLPVSLGEPASISCRSSQSLVHSNGNTYLHWYLQKPGQSPKLLIYKVSNRFSGVPDRFSGSGSGTDFTLKISRVEAEDVGVYFCSQSTHVPWTFGGGTKVEIKRTVAAPSVFIFPPSDEQLKSGTASVVCLLNNFYPREAKVQWKVDNALQSGNSQESVTEQDSKDSTYSLSSTLTLSKADYEKHKVYACEVTHQGLSSPVTKSFNRGEC
B11: hB273_H3/hB273_L1 (antibody, V domains shown)
VH: EVQLVQSGAEVKKPGASVKVSCKASGYSFIGYFMNWMKQSPGKSLEWIGRFNPYNGDTFYNQKFKGKATLTVDKSTSTAHMELSSLRSEDTAVYFCGRSAYYFDSGGYFDYWGQGTLVTVSS
VL: DIVMTQSPLSLPVTPGEPASISCRSSQSLVHSNGNTYLHWYLQKPGQSPQLLIYKVSNRFSGVPDRFSGSGSGTDFTLKISRVEAEDVGVYYCSQSTHVPWTFGPGTKVEIKR
B12: hB273_H1/hB273_L1 (antibody, V domains shown)
VH: QVQLVQSGAEVKKPGASVKVSCKASGYSFIGYFMNWVRQAPGMGLEWMGRFNPYNGDTFYNQKFKGRVTLTVDKSTSTAYMELSSLRSEDTAVYYCARSAYYFDSGGYFDYWGQGTLVTVSS
VL: DIVMTQSPLSLPVTPGEPASISCRSSQSLVHSNGNTYLHWYLQKPGQSPQLLIYKVSNRFSGVPDRFSGSGSGTDFTLKISRVEAEDVGVYYCSQSTHVPWTFGPGTKVEIKR
B13: hB273_H2-3/hB273_L1 (antibody)
heavy: not shown
light: DIVMTQSPLSLPVTPGEPASISCRSSQSLVHSNGNTYLHWYLQKPGQSPQLLIYKVSNRFSGVPDRFSGSGSGTDFTLKISRVEAEDVGVYYCSQSTHVPWTFGPGTKVEIKRTVAAPSVFIFPPSDEQLKSGTASVVCLLNNFYPREAKVQWKVDNALQSGNSQESVTEQDSKDSTYSLSSTLTLSKADYEKHKVYACEVTHQGLSSPVTKSFNRGEC
B14: hB273_H2-2/hB273_L1 (antibody)
heavy: not shown
light: DIVMTQSPLSLPVTPGEPASISCRSSQSLVHSNGNTYLHWYLQKPGQSPQLLIYKVSNRFSGVPDRFSGSGSGTDFTLKISRVEAEDVGVYYCSQSTHVPWTFGPGTKVEIKRTVAAPSVFIFPPSDEQLKSGTASVVCLLNNFYPREAKVQWKVDNALQSGNSQESVTEQDSKDSTYSLSSTLTLSKADYEKHKVYACEVTHQGLSSPVTKSFNRGEC
B15: hB273_H2-1/hB273_L1 (antibody)
heavy: not shown
light: DIVMTQSPLSLPVTPGEPASISCRSSQSLVHSNGNTYLHWYLQKPGQSPQLLIYKVSNRFSGVPDRFSGSGSGTDFTLKISRVEAEDVGVYYCSQSTHVPWTFGPGTKVEIKRTVAAPSVFIFPPSDEQLKSGTASVVCLLNNFYPREAKVQWKVDNALQSGNSQESVTEQDSKDSTYSLSSTLTLSKADYEKHKVYACEVTHQGLSSPVTKSFNRGEC
B16: hB273_H1-1/hB273_L1 (antibody, V domains shown)
VH: QVQLVQSGAEVKKPGASVKVSCKASGYSFIGYFMNWMRQAPGMGLEWMGRFNPYNGDTFYNQKFKGRVTLTVDKSTSTAYMELSSLRSEDTAVYFCGRSAYYFDSGGYFDYWGQGTLVTVSS
VL: DIVMTQSPLSLPVTPGEPASISCRSSQSLVHSNGNTYLHWYLQKPGQSPQLLIYKVSNRFSGVPDRFSGSGSGTDFTLKISRVEAEDVGVYYCSQSTHVPWTFGPGTKVEIKR
B17: hB273_H2-4/hB273_L1 (antibody, V domains shown)
VH: QVQLVQSGAEVKKPGASVKVSCKASGYSFIGYFMNWMKQSPGMSLEWIGRFNPYNGDTFYNQKFKGKATLTVDKSTSTAYMELSSLRSEDTAVYFCGRSAYYFDSGGYFDYWGQGTLVTVSS
VL: DIVMTQSPLSLPVTPGEPASISCRSSQSLVHSNGNTYLHWYLQKPGQSPQLLIYKVSNRFSGVPDRFSGSGSGTDFTLKISRVEAEDVGVYYCSQSTHVPWTFGPGTKVEIKR
B18: hB273_H2-5/hB273_L1 (antibody, V domains shown)
VH: QVQLVQSGAEVKKPGASVKVSCKASGYSFIGYFMNWMKQSPGKSLEWIGRFNPYNGDTFYNQKFKGKATLTVDKSTSTAYMELSSLRSEDTAVYFCGRSAYYFDSGGYFDYWGQGTLVTVSS
VL: DIVMTQSPLSLPVTPGEPASISCRSSQSLVHSNGNTYLHWYLQKPGQSPQLLIYKVSNRFSGVPDRFSGSGSGTDFTLKISRVEAEDVGVYYCSQSTHVPWTFGPGTKVEIKR

Biological target: T1, rsDR5 (recombinant human DR5 …)
Experiment: Biacore

Row | Binder | Kd
1 | B1 | 2.02 nM
2 | B2 | 1.76 nM
3 | B3 | 1.76 nM

Biological target: T1, rsDR5 (recombinant human DR5 …)
Experiment: Biacore
Remark: another data set of the same source

Row | Binder | Kd
4 | B4 | 6.53 nM
5 | B5 | 2.19 nM
6 | B6 | 4.47 nM
7 | B7 | 4.36 nM
8 | B8 | 6.04 nM
9 | B9 | 5.4 nM
10 | B10 | 2.15 nM
11 | B11 | 2.4 nM
12 | B12 | 5.45 nM

Biological target: T1, rsDR5 (recombinant human DR5 …)
Experiment: Biacore
Remark: another data set of the same source

Row | Binder | Kd
13 | B13 | 2.12 nM
14 | B14 | 2.14 nM
15 | B15 | 1.99 nM
16 | B16 | 1.83 nM
17 | B17 | 1.55 nM
18 | B18 | 1.38 nM
